Experimental findings from patent US20170291955A1 are described below.

One assay concerns the target KO_I (mouse; human) (UniProt P70424). Nature of the assay: SPR (ProteOn XPR36), variant captured by anti-Her2 polyclonal antibody, 39S injected; apparent affinity.
For assay [1], the target named is KI_II (mouse; human) (UniProt P70424). The description is as above.
Assay [2] shares this target. Nature of the assay: SPR (ProteOn), variant captured, 39S injected; apparent affinity.

B1: 39S antibody (antibody, V domains shown)
VH: EVQLVESGGGLVKPGGSLRLSCAASGFTFSSYSMSWVRQAPGKGLEWVSSISSSSSYIYYADSVKGRFTISRDNAKNSLYLQMNSLRAEDTAVYYCARGGDAYNYYYFDYWGQGTLVTVSS
VL: DIVMTQTPLSLSVTPGQPASISCKSSQSVFFRSNNKNILAWYLQKPGQPPQLLIYWASSRESGVPDRFSGSGSGTDFTLKISRVEAEDVGVYYCQQYFGSPFTFGPGTKVDIK
B1: the Kd with KO_I (mouse; human) stood at 0.095 nM; with KI_II (mouse; human) [1] it was 0.163 nM; with KI_II (mouse; human) [2], 0.168 nM.
